Experimental data from article PMC6160764 (Theranostics, 2018).

B1: anti-HER3 scFv (scFv, V domains shown)
VH: not shown
VL: DIQMTQSPSSLSASVGDRVTITCRASQGISNYLAWYQQKPGKAPKLLIYAASSLQSGVPSRFSGSRSGTDFTLTISSLQPEDFATYYCQQYGWLPLTFGQGTKVEIK
B2: IRDye800CW-labeled anti-HER3 scFv (scFv, V domains shown)
VH: not shown
VL: B1 VL

Target: Recombinant human HER3-Fc chimera protein (Homo sapiens, UniProt P21860)
Assay: BLI

Sequence of Recombinant human HER3-Fc chimera protein (P21860 20-643, change not shown): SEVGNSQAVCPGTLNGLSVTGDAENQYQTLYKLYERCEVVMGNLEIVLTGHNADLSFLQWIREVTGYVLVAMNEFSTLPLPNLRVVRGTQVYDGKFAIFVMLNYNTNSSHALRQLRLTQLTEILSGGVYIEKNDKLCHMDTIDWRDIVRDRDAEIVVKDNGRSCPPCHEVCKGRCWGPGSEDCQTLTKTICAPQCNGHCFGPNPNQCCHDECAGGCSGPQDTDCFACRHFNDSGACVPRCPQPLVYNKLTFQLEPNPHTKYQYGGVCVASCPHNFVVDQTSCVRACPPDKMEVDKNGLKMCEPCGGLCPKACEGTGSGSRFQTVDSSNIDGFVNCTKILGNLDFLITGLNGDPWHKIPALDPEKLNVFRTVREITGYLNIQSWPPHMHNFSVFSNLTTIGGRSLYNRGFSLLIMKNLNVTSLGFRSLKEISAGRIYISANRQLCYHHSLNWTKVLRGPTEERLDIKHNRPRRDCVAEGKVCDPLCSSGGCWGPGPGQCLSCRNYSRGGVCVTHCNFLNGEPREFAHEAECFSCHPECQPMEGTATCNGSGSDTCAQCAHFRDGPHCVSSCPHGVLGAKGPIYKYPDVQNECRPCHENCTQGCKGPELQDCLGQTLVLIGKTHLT

Binder | Kd
B1 | 20 ± 1.4 nM
B2 | 29 ± 3.7 nM
